Experimental data from US20040110711A1.

Biological target: mouse full-length TrkB (TrkB.FL) (mouse)
Test: cell-based or functional assay

TrkB phosphorylation in Ts16 neurons against euploid neurons: 33 % less
Substance: BDNF (brain derived neurotrophic factor), supplied by Regeneron Pharmaceuticals (from UniProt P23560 129-247) (ligand)
neuron survival 36 hours after B27 withdrawal: 65%
